Measured values reported in paper PMC2785718, “Structure/function studies of dogfish α-crystallin, comparison with bovine α-crystallin” (Molecular Vision, 2009).
One block for each binder: values may come before it.

Key:
bovine αB-crystallin = biological target: T1, bovine αB-crystallin (bovine (endogenous in lens), UniProt P02510 1-175); assay: SEC; gel filtration of lens extract on Sephacryl S300 in phosphate buffered saline with sodium azide, pH 7.2, room temperature; central 50% of the α-crystallin peak rechromatographed; size by comparison with known proteins; subunits of the isolated native hetero-oligomer by SDS-PAGE (only α-crystallin polypeptides present); conditions: both partners purified
T1 construct: αB-crystallin polypeptide of bovine lens α-crystallin; native subunit, not separated from αA-crystallin; Native polypeptide from lens; also called bovine αB-crystallin polypeptide
T1 sequence (looked up): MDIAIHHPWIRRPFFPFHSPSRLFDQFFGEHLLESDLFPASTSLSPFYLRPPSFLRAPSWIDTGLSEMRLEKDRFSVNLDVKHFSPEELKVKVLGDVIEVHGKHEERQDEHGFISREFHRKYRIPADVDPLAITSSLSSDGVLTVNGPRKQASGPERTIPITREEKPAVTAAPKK

dogfish αB-crystallin = biological target: T2, dogfish αB-crystallin (spiny dogfish (endogenous in lens), UniProt P02512 1-177); assay: as above; conditions: both partners purified
T2 construct: αB-crystallin polypeptide of spiny dogfish lens α-crystallin; native subunit, not separated from αA-crystallin; tryptophan at positions 9, 49 and 63; Native polypeptide from lens; It accounts for >80% of dogfish α-crystallin; also called αB polypeptide; αB subunit
T2 sequence (looked up): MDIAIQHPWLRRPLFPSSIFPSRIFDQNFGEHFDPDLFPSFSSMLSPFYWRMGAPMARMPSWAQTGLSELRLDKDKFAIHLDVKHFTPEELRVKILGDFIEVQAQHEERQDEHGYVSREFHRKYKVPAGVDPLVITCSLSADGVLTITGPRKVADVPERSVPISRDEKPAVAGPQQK

- binding result (bovine αB-crystallin): binds
B1: bovine αA-crystallin (natural protein, bovine (endogenous in lens), UniProt P02470 1-173, looked up)
chain: MDIAIQHPWFKRTLGPFYPSRLFDQFFGEGLFEYDLLPFLSSTISPYYRQSLFRTVLDSGISEVRSDRDKFVIFLDVKHFSPEDLTVKVQEDFVEIHGKHNERQDDHGYISREFHRRYRLPSNVDQSALSCSLSADGMLTFSGPKIPSGVDAGHSERAIPVSREEKPSSAPSS
notes: αA-crystallin polypeptide of bovine lens α-crystallin; native subunit, not separated from αB-crystallin; Native polypeptide from lens; also called bovine αA chain; bovine αA-crystallin subunit

- stoichiometry N (dogfish αB-crystallin): ~0.2 αA:αB
B2: dogfish αA-crystallin (natural protein, spiny dogfish (endogenous in lens), UniProt P02509 1-177, looked up)
chain: MDLAIQYPWFRRSLGSFYPSRLFDQFFGEGLFDYDLFPFFSSTISPYYRQSVFRNFLDSGISEVRSEKDRFMINLNVKHFSPEELSVKIVDDYVEIHGKHAERQEDQGRVSREFHRTYHLPSNLNESAIACSLSNEGLLTLCCPKTRPGDDSNWQDRPIPVSREEKQGTQPEIRADP
notes: αA-crystallin polypeptide of spiny dogfish lens α-crystallin; native subunit, not separated from αB-crystallin; tryptophan at positions 9 and 154; Native polypeptide from lens; also called αA chain; αA-crystallin subunit
